According to patent publication US20120088722:

Test system: T1, fluorescence labeled peptide of the protease-sensitive hinge region of LTBP1, REHGARS
T1 sequence: REHGARS

## MMP13 catalytic domain (Enzo, Inc)
  Km (Michaelis-Menten non-linear fit, digest of fluorescence labeled hinge substrate): Km=1.628e-016
